# In patent US11433099B2, “Immunotherapy with B*08 restricted peptides and combination of peptides against cancers and related methods” (Immatics Biotechnologies GmbH, priority 2018, dated 2022):
# Target: HLA-B*08:01 (Homo sapiens, UniProt P01889)
# Test: MHC binding assay (UV-ligand exchange, beta2m ELISA)
# Details: MHC class I binding score; binding to HLA-B*08:01 ranged by peptide exchange yield (UV-ligand exchange, β2m ELISA)
# Text: Candidate peptides for T cell based therapies according to the present invention were further tested for their MHC binding capacity (affinity). The individual peptide-MHC complexes were produced by UV-ligand exchange, where a UV-sensitive peptide is cleaved upon UV-irradiation and exchanged with the peptide of interest as analyzed. Only peptide candidates that can effectively bind and stabilize the peptide-receptive MHC molecules prevent dissociation of the MHC complexes. To determine the yield of the exchange reaction, an ELISA was performed based on the detection of the light chain (β2m) of stabilized MHC complexes. The assay was performed as generally described in Rodenko et al. (Rodenko et al., 2006).
# 96 well MAXISorp plates (NUNC) were coated over night with 2 ug/ml streptavidin in PBS at room temperature, washed 4× and blocked for 1 h at 37° C. in 2% BSA containing blocking buffer. Refolded HLA-A*02:01/MLA-001 monomers served as standards, covering the range of 15-500 ng/ml. Peptide-MHC monomers of the UV-exchange reaction were diluted 100-fold in blocking buffer. Samples were incubated for 1 h at 37° C., washed four times, incubated with 2 ug/ml HRP conjugated anti-β2m for 1 h at 37° C., washed again and detected with TMB solution that is stopped with […]. Absorption was measured at 450 nm. Candidate peptides that show a high exchange yield (preferably higher than 50%, most preferred higher than 75%) are generally preferred for a generation and production of antibodies or fragments thereof, and/or T cell receptors or fragments thereof, as they show sufficient avidity to the MHC molecules and prevent dissociation of the MHC complexes.
row,Substance,Peptide exchange
1,2 (QIMPKAGL; listed as Homo sapiens) [compound 2],+++ (50% = +++)
2,4 (QVMPKTGL; listed as Homo sapiens) [compound 4],++ (20% = ++)
3,6 (NRQKRFVL; listed as Homo sapiens) [compound 6],++ (20% = ++)
4,7 (AARLRPAL; listed as Homo sapiens) [compound 7],++ (20% = ++)
5,12 (DFYLRSSAF; listed as Homo sapiens) [compound 12],+++ (50% = +++)
6,14 (ELILKRCL; listed as Homo sapiens) [compound 14],+++ (50% = +++)
7,15 (LLKKIEHA; listed as Homo sapiens) [compound 15],++ (20% = ++)
8,16 (NRKPRTPF; listed as Homo sapiens) [compound 16],++ (20% = ++)
9,17 (LLILKTVL; listed as Homo sapiens) [compound 17],+++ (50% = +++)
10,23 (DIKKTNESL; listed as Homo sapiens) [compound 23],++ (20% = ++)
11,24 (DLVLKRCL; listed as Homo sapiens) [compound 24],++++ (75% = ++++)
12,26 (DARCKLAEL; listed as Homo sapiens) [compound 26],++ (20% = ++)
13,28 (DPKSRLKSL; listed as Homo sapiens) [compound 28],++ (20% = ++)
14,30 (DLQKKAQAL; listed as Homo sapiens) [compound 30],++ (20% = ++)
15,32 (NPYLKLVL; listed as Homo sapiens) [compound 32],++ (20% = ++)
16,39 (DAKSKIEQI; listed as Homo sapiens) [compound 39],++ (20% = ++)
17,43 (DLKKLVDSL; listed as Homo sapiens) [compound 43],+++ (50% = +++)
18,44 (HLTNRVLSL; listed as Homo sapiens) [compound 44],+++ (50% = +++)
19,46 (DLRNKIIAA; listed as Homo sapiens) [compound 46],+++ (50% = +++)
20,50 (TLRLLVAAL; listed as Homo sapiens) [compound 50],+++ (50% = +++)
21,51 (ERRVKVSSL; listed as Homo sapiens) [compound 51],+++ (50% = +++)
22,52 (ELILKHSL; listed as Homo sapiens) [compound 52],+++ (50% = +++)
23,53 (DLRKLKRQL; listed as Homo sapiens) [compound 53],++ (20% = ++)
24,54 (DLSRRDVSL; listed as Homo sapiens) [compound 54],++ (20% = ++)

row,Substance,Peptide exchange
1,55 (VLLSRRTAL; listed as Homo sapiens) [compound 55],++ (20% = ++)
2,56 (ILCGSRKMPL; listed as Homo sapiens) [compound 56],++ (20% = ++)
3,59 (FDFRGKTKVF; listed as Homo sapiens) [compound 59],++ (20% = ++)
4,61 (SIKKELVVL; listed as Homo sapiens) [compound 61],++ (20% = ++)
5,64 (FILGREAGAL; listed as Homo sapiens) [compound 64],++ (20% = ++)
6,65 (NLLMRNVL; listed as Homo sapiens) [compound 65],++ (20% = ++)
7,67 (DMNTKRAIHTL; listed as Homo sapiens) [compound 67],++ (20% = ++)
8,69 (ELARQRLL; listed as Homo sapiens) [compound 69],++ (20% = ++)
9,70 (RPKGTPPL; listed as Homo sapiens) [compound 70],++ (20% = ++)
10,72 (LPLAHHIQL; listed as Homo sapiens) [compound 72],+++ (50% = +++)
11,73 (MFPARGVPL; listed as Homo sapiens) [compound 73],++ (20% = ++)
12,77 (LPKLPVPPL; listed as Homo sapiens) [compound 77],+++ (50% = +++)
13,79 (GLARIYSF; listed as Homo sapiens) [compound 79],++ (20% = ++)
14,81 (MYRKEQYL; listed as Homo sapiens) [compound 81],++ (20% = ++)
15,84 (YITRQFVQF; listed as Homo sapiens) [compound 84],++ (20% = ++)
16,85 (QKPRKKKL; listed as Homo sapiens) [compound 85],++ (20% = ++)
17,87 (QILQHHVL; listed as Homo sapiens) [compound 87],+++ (50% = +++)
18,88 (MLLCLSLEL; listed as Homo sapiens) [compound 88],++ (20% = ++)
19,90 (TIGLGLHSL; listed as Homo sapiens) [compound 90],++ (20% = ++)
20,92 (TLKAMVQAW; listed as Homo sapiens) [compound 92],+++ (50% = +++)
21,93 (LMKEKIQEM; listed as Homo sapiens) [compound 93],+++ (50% = +++)
22,94 (DQLLRHVM; listed as Homo sapiens) [compound 94],+++ (50% = +++)
23,95 (SRNPRGFFL; listed as Homo sapiens) [compound 95],++ (20% = ++)
24,96 (RPAGVFEL; listed as Homo sapiens) [compound 96],++ (20% = ++)

# More lines, now with the values ahead:
row,Peptide exchange,Substance
1,+++ (50% = +++),97 (EPVTKAEM; listed as Homo sapiens) [compound 97]
2,++ (20% = ++),98 (EPVNTNVVL; listed as Homo sapiens) [compound 98]
3,++ (20% = ++),99 (NVKIRFLE; listed as Homo sapiens) [compound 99]
4,++ (20% = ++),100 (VLLMGPLHL; listed as Homo sapiens) [compound 100]
5,+++ (50% = +++),101 (FAFEKLIQF; listed as Homo sapiens) [compound 101]
6,+++ (50% = +++),102 (IMKKIRESY; listed as Homo sapiens) [compound 102]
7,+++ (50% = +++),103 (IANLRVKNI; listed as Homo sapiens) [compound 103]
8,++ (20% = ++),104 (FAFGEPREL; listed as Homo sapiens) [compound 104]
9,++ (20% = ++),105 (APLKMLALV; listed as Homo sapiens) [compound 105]
10,++ (20% = ++),106 (HLHLLETSI; listed as Homo sapiens) [compound 106]
11,++ (20% = ++),107 (LPKGLKDWQA; listed as Homo sapiens) [compound 107]
12,++ (20% = ++),108 (RSYYHPTNL; listed as Homo sapiens) [compound 108]
13,++ (20% = ++),109 (IPASHPVLTL; listed as Homo sapiens) [compound 109]
14,+++ (50% = +++),110 (DAMTKHTL; listed as Homo sapiens) [compound 110]
15,++ (20% = ++),111 (GAGLRITAPL; listed as Homo sapiens) [compound 111]
16,++ (20% = ++),112 (NALDPLSAL; listed as Homo sapiens) [compound 112]
17,++ (20% = ++),113 (MEKGLASL; listed as Homo sapiens) [compound 113]
18,++ (20% = ++),114 (PVKPKFYL; listed as Homo sapiens) [compound 114]
19,++ (20% = ++),115 (MRILKRFLAC; listed as Homo sapiens) [compound 115]
20,++ (20% = ++),116 (FTQNPRVQL; listed as Homo sapiens) [compound 116]
21,++ (20% = ++),117 (VGPNGFKSL; listed as Homo sapiens) [compound 117]
22,+++ (50% = +++),118 (MAFVKHLL; listed as Homo sapiens) [compound 118]
23,+++ (50% = +++),119 (FQRVSSVSF; listed as Homo sapiens) [compound 119]
24,++ (20% = ++),120 (AQRSEMVTL; listed as Homo sapiens) [compound 120]
25,++ (20% = ++),121 (YSQLSISL; listed as Homo sapiens) [compound 121]
26,++ (20% = ++),122 (ESSAQPTAL; listed as Homo sapiens) [compound 122]
27,++ (20% = ++),123 (SLLPFTLSF; listed as Homo sapiens) [compound 123]
28,+++ (50% = +++),124 (HSWTRTSV; listed as Homo sapiens) [compound 124]
